Experimental data from paper PMC6513997, “PFA ependymoma-associated protein EZHIP inhibits PRC2 activity through a H3 K27M-like mechanism” (Nature Communications, 2019).
Each block holds one binder with its values, some of them ahead of it. Primed or numbered codes have the meaning given here. Where no end group is shown, it is not given here. Biotin′ = not defined here

Tests used:
[1] = molecular target: native PRC2 purified from HeLa cells expressing FLAG-tagged EZH2 ( | human (endogenous in HeLa), UniProt Q15910 1-746); assay: steady-state enzyme kinetics (inhibition of methyltransferase activity); increasing oligonucleosome substrate with PRC2, SAM and varying EZHIP; Michaelis-Menten and Lineweaver-Burk curves fitted with competitive mode of inhibition; conditions: both partners purified
[2] = molecular target: recombinant PRC2 purified from SF9 cells (EZH2, SUZ12, EED, RBBP4) (human, UniProt Q15910 1-746; Q15022 1-739; O75530 1-441; Q09028 1-425); assay: cell-based or functional assay
Sequence of recombinant PRC2 purified from SF9 cells (EZH2, SUZ12, EED, RBBP4) (Q15910 whole entry, chain 1 of 4): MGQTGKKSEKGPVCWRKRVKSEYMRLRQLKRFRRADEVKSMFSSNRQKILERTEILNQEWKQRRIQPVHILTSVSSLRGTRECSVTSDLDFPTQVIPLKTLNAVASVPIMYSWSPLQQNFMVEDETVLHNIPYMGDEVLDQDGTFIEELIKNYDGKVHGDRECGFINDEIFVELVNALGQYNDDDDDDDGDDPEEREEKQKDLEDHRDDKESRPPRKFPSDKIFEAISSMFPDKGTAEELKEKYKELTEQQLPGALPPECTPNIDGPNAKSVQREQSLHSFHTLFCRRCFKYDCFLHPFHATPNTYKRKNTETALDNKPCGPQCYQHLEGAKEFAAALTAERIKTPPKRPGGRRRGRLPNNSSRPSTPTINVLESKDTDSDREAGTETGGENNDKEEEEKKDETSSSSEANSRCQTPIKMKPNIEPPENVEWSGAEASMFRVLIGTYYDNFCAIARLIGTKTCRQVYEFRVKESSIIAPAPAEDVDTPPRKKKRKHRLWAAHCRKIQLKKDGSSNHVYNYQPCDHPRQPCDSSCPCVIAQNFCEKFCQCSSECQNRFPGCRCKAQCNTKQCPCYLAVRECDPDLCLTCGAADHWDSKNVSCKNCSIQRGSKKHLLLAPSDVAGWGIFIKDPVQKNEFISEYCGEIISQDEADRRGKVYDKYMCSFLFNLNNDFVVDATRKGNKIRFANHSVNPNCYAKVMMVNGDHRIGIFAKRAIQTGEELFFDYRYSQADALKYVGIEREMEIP
Sequence of recombinant PRC2 purified from SF9 cells (EZH2, SUZ12, EED, RBBP4) (Q15022 whole entry, chain 2 of 4): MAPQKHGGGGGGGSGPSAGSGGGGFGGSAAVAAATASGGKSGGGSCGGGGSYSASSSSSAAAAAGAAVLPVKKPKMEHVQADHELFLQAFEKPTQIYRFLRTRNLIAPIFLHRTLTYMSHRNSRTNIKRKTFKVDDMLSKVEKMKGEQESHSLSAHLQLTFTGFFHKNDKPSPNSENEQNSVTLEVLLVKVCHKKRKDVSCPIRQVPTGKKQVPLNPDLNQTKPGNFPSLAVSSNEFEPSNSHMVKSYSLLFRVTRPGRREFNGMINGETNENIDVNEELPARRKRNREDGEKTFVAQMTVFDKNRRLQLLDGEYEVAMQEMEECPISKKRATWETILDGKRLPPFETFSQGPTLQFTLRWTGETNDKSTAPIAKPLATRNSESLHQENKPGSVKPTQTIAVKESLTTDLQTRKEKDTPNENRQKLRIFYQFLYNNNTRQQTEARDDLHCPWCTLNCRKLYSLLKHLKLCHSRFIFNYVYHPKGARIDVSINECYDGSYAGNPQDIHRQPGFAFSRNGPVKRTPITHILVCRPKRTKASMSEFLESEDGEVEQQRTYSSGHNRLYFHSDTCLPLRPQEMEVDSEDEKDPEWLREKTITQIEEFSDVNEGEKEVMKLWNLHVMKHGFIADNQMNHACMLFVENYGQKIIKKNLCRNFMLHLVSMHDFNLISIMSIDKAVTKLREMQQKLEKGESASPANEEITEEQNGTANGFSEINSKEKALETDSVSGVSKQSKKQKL
Sequence of recombinant PRC2 purified from SF9 cells (EZH2, SUZ12, EED, RBBP4) (O75530 whole entry, chain 3 of 4): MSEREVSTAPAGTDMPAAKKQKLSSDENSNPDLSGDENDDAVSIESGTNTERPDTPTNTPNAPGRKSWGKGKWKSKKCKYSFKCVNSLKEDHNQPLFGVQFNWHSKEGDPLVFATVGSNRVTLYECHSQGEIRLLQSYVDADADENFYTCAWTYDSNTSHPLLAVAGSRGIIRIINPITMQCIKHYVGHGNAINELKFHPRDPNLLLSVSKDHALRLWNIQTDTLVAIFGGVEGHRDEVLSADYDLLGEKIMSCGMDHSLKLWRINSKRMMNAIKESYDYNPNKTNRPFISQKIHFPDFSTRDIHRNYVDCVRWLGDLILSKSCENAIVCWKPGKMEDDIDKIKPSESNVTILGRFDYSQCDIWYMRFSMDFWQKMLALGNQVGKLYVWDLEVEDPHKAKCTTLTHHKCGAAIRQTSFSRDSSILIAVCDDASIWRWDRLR
Sequence of recombinant PRC2 purified from SF9 cells (EZH2, SUZ12, EED, RBBP4) (Q09028 whole entry, chain 4 of 4): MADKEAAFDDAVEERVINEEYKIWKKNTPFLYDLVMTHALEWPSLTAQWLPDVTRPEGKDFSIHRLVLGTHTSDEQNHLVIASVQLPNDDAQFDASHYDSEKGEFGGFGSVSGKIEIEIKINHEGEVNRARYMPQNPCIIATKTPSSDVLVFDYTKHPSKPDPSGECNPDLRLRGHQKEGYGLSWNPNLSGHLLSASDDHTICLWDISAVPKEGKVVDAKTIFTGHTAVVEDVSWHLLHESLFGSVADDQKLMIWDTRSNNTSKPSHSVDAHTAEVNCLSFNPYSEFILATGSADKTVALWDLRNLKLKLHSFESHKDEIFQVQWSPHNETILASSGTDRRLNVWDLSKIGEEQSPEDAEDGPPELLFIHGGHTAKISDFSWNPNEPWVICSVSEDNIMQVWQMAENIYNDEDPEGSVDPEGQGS

Sequence of native PRC2 purified from HeLa cells expressing FLAG-tagged EZH2 (Q15910 whole entry, chain 1 of 4): as the sequence (Q15910 whole entry, chain 1 of 4) above
Sequence of native PRC2 purified from HeLa cells expressing FLAG-tagged EZH2 (Q15022 whole entry, chain 2 of 4, further chain): as the sequence (Q15022 whole entry, chain 2 of 4) above
Sequence of native PRC2 purified from HeLa cells expressing FLAG-tagged EZH2 (O75530 2-441, chain 3 of 4, further chain): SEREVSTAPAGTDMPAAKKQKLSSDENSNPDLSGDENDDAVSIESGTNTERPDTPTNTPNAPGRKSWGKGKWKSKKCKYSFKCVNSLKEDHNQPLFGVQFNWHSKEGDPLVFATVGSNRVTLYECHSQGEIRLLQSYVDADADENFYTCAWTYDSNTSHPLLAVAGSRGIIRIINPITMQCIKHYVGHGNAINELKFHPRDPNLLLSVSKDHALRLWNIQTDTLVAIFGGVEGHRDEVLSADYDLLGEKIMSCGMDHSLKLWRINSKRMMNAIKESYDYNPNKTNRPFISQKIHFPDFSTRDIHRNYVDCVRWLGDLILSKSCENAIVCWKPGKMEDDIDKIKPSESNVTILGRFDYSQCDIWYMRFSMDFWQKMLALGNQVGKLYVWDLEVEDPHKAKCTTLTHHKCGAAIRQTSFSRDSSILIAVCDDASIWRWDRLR
Sequence of native PRC2 purified from HeLa cells expressing FLAG-tagged EZH2 (Q09028 2-425, chain 4 of 4, further chain): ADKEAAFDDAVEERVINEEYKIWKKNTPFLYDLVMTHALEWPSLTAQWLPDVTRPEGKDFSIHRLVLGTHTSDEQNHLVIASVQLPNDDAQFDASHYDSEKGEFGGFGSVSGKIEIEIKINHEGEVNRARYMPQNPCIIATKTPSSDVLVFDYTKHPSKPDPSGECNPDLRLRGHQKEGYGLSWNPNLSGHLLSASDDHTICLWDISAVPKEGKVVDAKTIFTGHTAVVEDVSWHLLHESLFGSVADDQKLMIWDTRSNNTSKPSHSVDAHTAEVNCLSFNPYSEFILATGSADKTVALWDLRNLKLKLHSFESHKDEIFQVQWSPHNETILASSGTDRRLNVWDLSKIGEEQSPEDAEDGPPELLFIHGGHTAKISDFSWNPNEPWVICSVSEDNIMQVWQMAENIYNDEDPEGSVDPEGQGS

Ki [1]: 0.00222 µM
B1: recombinant EZHIP purified from SF9 cells (natural protein)
chain: MATQSDMEKEQKHQQDEGQGGLNNETALASGDACGTGNQDPAASVTTVSSQASPSGGAALSSSTAGSSAAAATSAAIFITDEASGLPIIAAVLTERHSDRQDCRSPHEVFGCVVPEGGSQAAVGPQKATGHADEHLAQTKSPGNSRRRKQPCRNQAAPAQKPPGRRLFPEPLPPSSPGFRPSSYPCSGASTSSQATQPGPALLSHASEARPATRSRITLVASALRRRASGPGPVIRGCTAQPGPAFPHRATHLDPARLSPESAPGPARRGRASVPGPARRGCDSAPGPARRGRDSAPVSAPRGRDSAPGSARRGRDSAPGPALRVRTARSDAGHRSTSTTPGTGLRSRSTQQRSALLSRRSLSGSADENPSCGTGSERLAFQSRSGSPDPEVPSRASPPVWHAVRMRASSPSPPGRFFLPIPQQWDESSSSSYASNSSSPSRSPGLSPSSPSPEFLGLRSISTPSPESLRYALMPEFYALSPVPPEEQAEIESTAHPATPPEP

IC50 of PRC2 methyltransferase activity on H3 18-37 peptide, EZHIP KLP titrated, without H3K27me3 stimulatory peptide [2]: 35 µM
IC50 of rPRC2-Ezh2 methyltransferase activity on H3 (18-37) peptide substrate, KLP (403-423) peptide titrated, with H3K27me3 stimulatory peptide [2]: 4.1 µM
Binder: AVRMRASSPSPPGRFFLPIPK-{Biotin′} (not fully specified (residue 21); printed as AVRMRASSPSPPGRFFLPIPK-biotin) [biotinylated EZHIP (403-422) peptide, K27M-like peptide]

IC50 of rPRC2-Ezh2 methyltransferase activity on H3 (18-37) peptide substrate, H3 K27M (18-37) peptide titrated, with H3K27me3 stimulatory peptide [2]: 27.9 µM
Binder: KQLATKAARMSAPSTGGVKKYK (not fully specified; biotin on the added C-terminal K) [biotinylated H3.3 K27M (18-37) peptide]
